In patent publication US20240272171A1 (PHENOMEX, published 2024):
Values belong to the binder of their own block, whether it stands above or below them. No end group written: not given here. *: point of attachment. FITC = O=C1OC2(c3ccc(O)cc3Oc3cc(O)ccc32)c2ccc(NC(=S)*)cc21

Experiments:
[1] = molecular target: T1, HLA-A*02:01 MHC Class I complex (recombinant, biotinylated) (human, biotinylated (lysine of a C-terminal BirA recognition sequence)); test: pMHC on streptavidin beads held in T cell culture media at 37 C for 0-48 h; APC W6/32 staining, flow cytometry MFI fitted to an exponential decay
T1 construct: Bought as a peptide-loaded complex (Biolegend or other maker); also called pHLA (when loaded with peptide)

[2] = molecular target: T1, HLA-A*02:01 MHC Class I complex …; test: loading into HLA-A*02:01 and catalysed peptide exchange test

- half-life of the complex [1]: ~17 h
B1: SLYSYFQKV (SEQ ID NO: 5), SLC45A2-derived peptide (peptide)
peptide: SLYSYFQKV
notes: also called Immunogenic SLC45A2-derived peptide; SLC45A2 antigen peptide

- binding result [2]: binds
Binder: GAATK(FITC)MAAV [EP5 GAATKMAAV (SEQ ID NO: 13), FITC-labelled in-place peptide GAAT{Lys(FITC)}MAAV]

- half-life of the complex [1]: ~0.5 h
B2: SLLPIMWQLY (SEQ ID NO: 6), TCL1-derived peptide (peptide)
peptide: SLLPIMWQLY
notes: also called Non-Immunogenic TCL1-derived peptide
